{"source": "patent US8685668B2", "about": "“Method of expressing proteins with disulfide bridges” (University of Southern California, priority 2005, dated 2014)", "molecules": {"B1": {"name": "contortrostatin (protein)", "chain": "DAPANPCCDAATCKLTTGSQCADGLCCDQCKFMKEGTVCRRARGDDLDDYCNGISAGCPRNPFH"}}, "key": {"[1]": {"experiment": "Liposome encapsulation, size and stability (BCA protein assay after liposome disruption)", "assay_type": "physicochemical", "procedure": "Endotoxin-free VN containing liposomes (referred to as LVN) and endotoxin-free native CN containing liposomes (referred to as LCN) were prepared utilizing a probe sonication previously described (Fujii, Chang et al. 1997). Briefly, the lipids (disteroylphosphatidylcholine, cholesterol and polyethylene glycol derivatized lipid) were dissolved in a chloroform/methanol solution. Thin lipid films were created by pipetting aliquots of the lipid solution into round bottom glass tubes followed by solvent evaporation at 65° C. under a stream of nitrogen gas. The films were placed under vacuum for at least 24 hours to remove residual organic solvent. Liposomes formed following hydration of the lipid films with native CN or VN dissolved in 10 mM sodium phosphate, 9% sucrose, pH 7.2. The mixture was incubated at 65° C. for 5-10 minutes. Hydration was followed by probe sonication until the suspension was translucent. […]\nThe concentration of liposome entrapped CN/VN was determined by disruption of the liposomes with chloroform/methanol/water (10:40:50) followed by centrifugation at 14,000×g. The supernatant was analyzed for CN/VN concentration using BCA protein assay (Smith, Krohn et al. 1985). The encapsulation efficiency was assessed by BCA protein determination following disruption of the LrCN with a solution of H2O:methanol:chloroform."}, "[2]": {"biological_target": "T1, GPIIb/IIIa (integrin αIIbβ3) (Homo sapiens, UniProt P05106+P08514)", "T1 construct": "endogenous in cells; host or cells: platelets in fresh platelet-rich plasma", "experiment": "ADP-induced platelet aggregation inhibition assay in platelet-rich plasma", "assay_type": "cell-based", "settings": "inhibitor added one minute prior to ADP (1 μM)", "procedure": "Different concentrations of native CN, Vicrostatin (VN), or rCN conformer were incubated with platelet-rich plasma. Addition of ADP induces platelet aggregation; VN, rCN conformer, or native CN were added one minute prior to ADP.\nThe recombinant CN products were evaluated for biological activity by a platelet aggregation inhibition assay. According to this assay, CN binding to GPIIb/IIIa (integrin αIIbβ3) in an RGD dependent manner inhibits ADP induced platelet aggregation (Trikha, Rote et al. 1994). In this assay, potential inhibitors are added to fresh platelet-rich plasma, and after minute, ADP is added to a final concentration of 1 μM to induce aggregation. If inhibitor is present, functional aggregation will not occur. The IC50 is defined as the concentration at which 50% of the activity is inhibited, and is used as a measure of the potency of an inhibitor."}, "[3]": {"system": "MDA-MB-435 breast carcinoma cells", "experiment": "Inhibition of MDA-MB-435 cell adhesion to immobilized vitronectin (MTS readout)", "assay_type": "cell-based, human", "settings": "0-1000 nM, 30 min pretreatment, adhesion 1 hr at 25° C.", "procedure": "(§1) Pretreated cells were allowed to adhere for 1 hr at 25° C., and after non-adherent cells were washed away, the number of adherent cells for each condition was estimated using the MTS cell viability assay.\n(§2) Pretreated cells were allowed to adhere for 1 hr at 25° C., and after non-adherent cells were washed away, the number of adherent cells for each condition was estimated using the MTS cell viability assay. In the cell invasion assay, an invasion chamber consisting of cell culture inserts that fit into 24-well tissue culture plate has been utilized. The inserts contain an 8 μm-pore size polycarbonate membrane, over which a thin layer of ECMatrix™ was applied. The ECMatrix™ serves as an in vitro reconstituted basement membrane and is a solid gel of ECM proteins prepared from the Engelbreth Holm-Swarm (EHS) mouse tumor. The ECM layer occludes the membranes pores, blocking non-invasive cells to migrate through. […] At the 8 hr time point the cells that invaded through the pores into the lower chamber were measured. The numbers of invaded cells for each condition were approximated by quantitating the retrieved labeled DNA using a fluorescent plate reader. The results were calculated in % invasion, where the untreated control was considered as 100% invasion."}, "[4]": {"system": "MDA-MB-435 breast carcinoma cells", "experiment": "Inhibition of MDA-MB-435 cell adhesion to immobilized fibronectin (MTS readout)", "assay_type": "cell-based, human", "settings": "0-1000 nM, 30 min pretreatment, adhesion 1 hr at 25° C.", "procedure": "as §1, §2"}}}
{"molecule": "B1", "values": [{"measurement": "protein in the encapsulation solution entrapped within the liposomes", "setting": "[1]", "value": 80, "unit": "%"}, {"measurement": "IC50", "setting": "[2]", "value": "~60", "unit": "nM"}, {"measurement": "inhibition of MDA-MB-435 cell adhesion to immobilized vitronectin (Vn)", "setting": "[3]", "value": "inhibited adhesion"}, {"measurement": "inhibition of MDA-MB-435 cell adhesion to immobilized fibronectin (Fn)", "setting": "[4]", "value": "inhibited adhesion"}]}
